Results: patent US20100129369A1

Assays:
human c-Met (human) = human c-Met (human) (UniProt P08581); assay: cell-based or functional assay
[1] = biological target: human c-Met ECD-Fc-Flis (human); assay: HGF-blocking ELISA: HGF signal on coated c-Met ECD-Fc-Flis; Ab 1953.13 ng/mL
[2] = biological target: human c-Met ECD-Fc-Flis (human); assay: HGF-blocking ELISA: HGF signal on coated c-Met ECD-Fc-Flis; Ab 31250.00 ng/mL
[3] = biological target: human c-Met ECD-Fc-Flis (human); assay: HGF-blocking ELISA: HGF signal on coated c-Met ECD-Fc-Flis; Ab 488.28 ng/mL
[4] = biological target: human c-Met ECD-Fc-Flis (human); assay: HGF-blocking ELISA: HGF signal on coated c-Met ECD-Fc-Flis; Ab 125000.00 ng/mL
[5] = biological target: human c-Met ECD-Fc-Flis (human); assay: HGF-blocking ELISA: HGF signal on coated c-Met ECD-Fc-Flis; Ab 7.63 ng/mL
[6] = biological target: human c-Met ECD-Fc-Flis (human); assay: HGF-blocking ELISA: HGF signal on coated c-Met ECD-Fc-Flis; Ab 122.07 ng/mL
[7] = biological target: human c-Met ECD-Fc-Flis (human); assay: HGF-blocking ELISA: HGF signal on coated c-Met ECD-Fc-Flis; Ab 1.91 ng/mL
[8] = biological target: human c-Met ECD-Fc-Flis (human); assay: HGF-blocking ELISA: HGF signal on coated c-Met ECD-Fc-Flis; Ab 30.52 ng/mL
[9] = biological target: human c-Met ECD-Fc-Flis (human); assay: HGF-blocking ELISA: HGF signal on coated c-Met ECD-Fc-Flis; Ab 7812.50 ng/mL
[10] = biological target: human c-Met ECD-Fc-Flis (human); assay: HGF-blocking ELISA: HGF signal on coated c-Met ECD-Fc-Flis; Ab 0.00 ng/mL (HGF only)
[11] = biological target: human c-Met ECD-Fc-Flis (human); assay: HGF-blocking ELISA: HGF signal on coated c-Met ECD-Fc-Flis; Ab 0.48 ng/mL

Sequence of human hepatocyte growth factor (HGF) (P14210 32-728 limits assumed): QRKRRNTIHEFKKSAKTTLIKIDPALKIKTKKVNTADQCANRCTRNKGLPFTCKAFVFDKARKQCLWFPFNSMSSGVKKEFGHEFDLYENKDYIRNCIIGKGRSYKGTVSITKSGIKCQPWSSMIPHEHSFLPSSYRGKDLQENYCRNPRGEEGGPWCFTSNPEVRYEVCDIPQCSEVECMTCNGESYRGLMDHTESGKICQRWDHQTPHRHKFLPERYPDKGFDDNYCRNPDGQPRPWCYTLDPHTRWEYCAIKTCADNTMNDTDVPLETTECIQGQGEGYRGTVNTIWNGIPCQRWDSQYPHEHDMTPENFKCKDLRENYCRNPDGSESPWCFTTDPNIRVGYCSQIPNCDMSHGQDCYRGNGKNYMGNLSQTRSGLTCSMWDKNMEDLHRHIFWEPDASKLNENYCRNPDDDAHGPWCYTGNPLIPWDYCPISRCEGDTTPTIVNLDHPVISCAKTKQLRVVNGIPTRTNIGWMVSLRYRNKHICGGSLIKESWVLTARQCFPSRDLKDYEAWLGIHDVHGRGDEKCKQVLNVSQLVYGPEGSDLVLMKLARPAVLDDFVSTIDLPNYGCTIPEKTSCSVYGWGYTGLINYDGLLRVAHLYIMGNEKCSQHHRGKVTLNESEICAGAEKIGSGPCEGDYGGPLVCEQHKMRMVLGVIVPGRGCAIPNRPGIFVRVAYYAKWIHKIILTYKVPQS
Sequence of human c-Met (human) (P08581 25-1390): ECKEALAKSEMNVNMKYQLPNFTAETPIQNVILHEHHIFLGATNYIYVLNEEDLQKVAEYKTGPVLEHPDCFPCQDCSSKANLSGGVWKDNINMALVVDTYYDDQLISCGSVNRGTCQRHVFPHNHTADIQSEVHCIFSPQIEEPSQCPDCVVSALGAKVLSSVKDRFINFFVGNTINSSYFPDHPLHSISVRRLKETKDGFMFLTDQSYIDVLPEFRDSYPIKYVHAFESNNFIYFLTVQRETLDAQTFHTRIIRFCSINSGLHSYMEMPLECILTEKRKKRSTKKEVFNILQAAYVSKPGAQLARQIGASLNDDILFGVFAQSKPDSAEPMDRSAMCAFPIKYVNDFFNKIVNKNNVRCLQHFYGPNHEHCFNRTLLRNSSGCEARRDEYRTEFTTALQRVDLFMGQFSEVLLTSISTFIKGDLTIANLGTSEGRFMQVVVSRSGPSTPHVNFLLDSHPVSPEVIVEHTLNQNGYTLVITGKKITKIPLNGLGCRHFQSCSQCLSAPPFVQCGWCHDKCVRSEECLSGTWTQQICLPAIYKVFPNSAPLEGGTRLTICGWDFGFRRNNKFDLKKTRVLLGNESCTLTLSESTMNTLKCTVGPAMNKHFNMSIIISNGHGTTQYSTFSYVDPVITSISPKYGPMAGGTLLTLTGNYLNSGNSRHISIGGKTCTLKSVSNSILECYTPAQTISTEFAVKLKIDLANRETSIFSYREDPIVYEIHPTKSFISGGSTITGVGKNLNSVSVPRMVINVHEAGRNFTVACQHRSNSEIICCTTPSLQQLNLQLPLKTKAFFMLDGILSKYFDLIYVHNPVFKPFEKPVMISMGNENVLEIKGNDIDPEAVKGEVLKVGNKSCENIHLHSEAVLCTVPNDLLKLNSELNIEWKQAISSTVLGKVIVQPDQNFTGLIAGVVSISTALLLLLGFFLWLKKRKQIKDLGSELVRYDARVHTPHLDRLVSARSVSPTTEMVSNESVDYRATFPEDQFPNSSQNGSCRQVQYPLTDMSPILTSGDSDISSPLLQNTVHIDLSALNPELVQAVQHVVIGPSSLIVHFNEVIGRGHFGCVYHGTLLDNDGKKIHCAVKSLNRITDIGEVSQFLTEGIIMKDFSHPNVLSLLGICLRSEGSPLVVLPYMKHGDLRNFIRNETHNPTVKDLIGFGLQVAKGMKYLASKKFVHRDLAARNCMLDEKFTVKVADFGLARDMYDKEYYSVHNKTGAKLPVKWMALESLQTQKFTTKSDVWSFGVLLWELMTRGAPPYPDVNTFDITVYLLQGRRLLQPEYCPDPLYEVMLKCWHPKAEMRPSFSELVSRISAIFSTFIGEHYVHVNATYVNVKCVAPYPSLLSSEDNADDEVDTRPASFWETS
Sequence of human c-Met ECD-Fc-Flis (human) (chain, as listed by the source): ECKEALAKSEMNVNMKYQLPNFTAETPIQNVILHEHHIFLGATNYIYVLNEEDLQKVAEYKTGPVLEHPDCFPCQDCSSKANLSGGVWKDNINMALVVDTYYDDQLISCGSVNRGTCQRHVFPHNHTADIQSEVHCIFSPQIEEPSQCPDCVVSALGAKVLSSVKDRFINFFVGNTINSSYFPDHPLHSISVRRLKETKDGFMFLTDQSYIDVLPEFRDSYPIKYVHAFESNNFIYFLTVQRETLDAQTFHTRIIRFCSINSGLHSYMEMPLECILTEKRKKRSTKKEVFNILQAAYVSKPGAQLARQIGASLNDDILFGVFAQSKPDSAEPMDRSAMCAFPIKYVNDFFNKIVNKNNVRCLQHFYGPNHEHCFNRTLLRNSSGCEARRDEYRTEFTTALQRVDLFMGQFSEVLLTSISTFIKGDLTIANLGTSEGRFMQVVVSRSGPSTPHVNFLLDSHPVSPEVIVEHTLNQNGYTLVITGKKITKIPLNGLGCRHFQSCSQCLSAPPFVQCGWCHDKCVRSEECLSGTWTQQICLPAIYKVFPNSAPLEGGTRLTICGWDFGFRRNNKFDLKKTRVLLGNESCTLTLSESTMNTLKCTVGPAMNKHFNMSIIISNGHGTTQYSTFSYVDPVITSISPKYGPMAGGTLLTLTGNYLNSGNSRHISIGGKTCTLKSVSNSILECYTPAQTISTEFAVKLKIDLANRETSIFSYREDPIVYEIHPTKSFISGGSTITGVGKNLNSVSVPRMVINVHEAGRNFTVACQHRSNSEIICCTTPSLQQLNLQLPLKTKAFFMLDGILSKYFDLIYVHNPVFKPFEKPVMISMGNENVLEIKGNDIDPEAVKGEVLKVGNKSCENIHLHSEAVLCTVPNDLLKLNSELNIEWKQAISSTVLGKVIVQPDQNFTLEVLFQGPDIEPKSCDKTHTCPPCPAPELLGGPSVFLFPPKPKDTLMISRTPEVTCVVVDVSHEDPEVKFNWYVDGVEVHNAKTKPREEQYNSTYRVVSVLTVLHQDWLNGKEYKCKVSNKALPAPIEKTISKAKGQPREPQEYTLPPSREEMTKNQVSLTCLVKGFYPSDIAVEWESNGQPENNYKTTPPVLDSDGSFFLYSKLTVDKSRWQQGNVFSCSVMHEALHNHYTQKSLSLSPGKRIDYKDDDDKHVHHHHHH

Substance | AVG A450 nm [1] [A450 nm] | AVG A450 nm [2] [A450 nm] | AVG A450 nm [3] [A450 nm] | AVG A450 nm [4] [A450 nm] | % inhibition of HGF stimulated phospho-Met (ELISA, HCT116 cells), Ab 0.0032 µg/mL (human c-Met (human)) [%] | % inhibition of HGF stimulated phospho-Met (ELISA, HCT116 cells), Ab 0.016 µg/mL (human c-Met (human)) [%] | % inhibition of HGF stimulated phospho-Met (ELISA, HCT116 cells), Ab 0.08 µg/mL (human c-Met (human)) [%] | % inhibition of HGF stimulated phospho-Met (ELISA, HCT116 cells), Ab 0.4 µg/mL (human c-Met (human)) [%] | % inhibition of HGF stimulated phospho-Met (ELISA, HCT116 cells), Ab 2 µg/mL (human c-Met (human)) [%] | % inhibition of HGF stimulated phospho-Met (ELISA, HCT116 cells), Ab 10 µg/mL (human c-Met (human)) [%] | AVG CPM, 3H-thymidine incorporation in MKN45 cells, Ab 0.0 ng/mL (no antibody) (human c-Met (human)) [CPM] | AVG CPM, 3H-thymidine incorporation in MKN45 cells, Ab 0.1 ng/mL (human c-Met (human)) [CPM] | AVG CPM, 3H-thymidine incorporation in MKN45 cells, Ab 0.4 ng/mL (human c-Met (human)) [CPM] | AVG CPM, 3H-thymidine incorporation in MKN45 cells, Ab 2.6 ng/mL (human c-Met (human)) [CPM] | AVG CPM, 3H-thymidine incorporation in MKN45 cells, Ab 15.4 ng/mL (human c-Met (human)) [CPM] | AVG CPM, 3H-thymidine incorporation in MKN45 cells, Ab 92.6 ng/mL (human c-Met (human)) [CPM] | AVG CPM, 3H-thymidine incorporation in MKN45 cells, Ab 555.6 ng/mL (human c-Met (human)) [CPM] | AVG CPM, 3H-thymidine incorporation in MKN45 cells, Ab 3333.3 ng/mL (human c-Met (human)) [CPM] | AVG CPM, 3H-thymidine incorporation in MKN45 cells, Ab 20000.0 ng/mL (human c-Met (human)) [CPM] | Mean Fluorescence (c-Met left on the surface of MKN45 cells, FACS), Ab 5.00 ug/mL (human c-Met (human)) | also measured
human hepatocyte growth factor (HGF) (from UniProt P14210 32-728) (ligand) |  |  |  |  |  |  |  |  |  |  |  |  |  |  |  |  |  |  |  |  | 3H-Thymidine Incorporation in Primary Human Hepatocytes (ave), HGF 200 ng/mL (human c-Met (human)): 6290; H441 Scratch Assay, Avg. %, HGF 200 ng/mL (human c-Met (human)): 364%; HepG2 Cell Invasiveness, Average Cell Number Per 2.5x Field, HGF 50 ng/mL (cells per 2.5x field) (human c-Met (human)): 510; Percent of DU145 Cells in Colonies (scatter assay), HGF 20 ng/mL (human c-Met (human)): 8.15%; Staurosporine-Induced Apoptosis in Caki-1 Cells, Average A450 nm, HGF 0.02 ng/mL (human c-Met (human)): 0.97 A450 nm; Staurosporine-Induced Apoptosis in Caki-1 Cells, Average A450 nm, HGF 0.23 ng/mL (human c-Met (human)): 0.93 A450 nm; Staurosporine-Induced Apoptosis in Caki-1 Cells, Average A450 nm, HGF 2.25 ng/mL (human c-Met (human)): 0.73 A450 nm; Staurosporine-Induced Apoptosis in Caki-1 Cells, Average A450 nm, HGF 22.5 ng/mL (human c-Met (human)): 0.58 A450 nm; Staurosporine-Induced Apoptosis in Caki-1 Cells, Average A450 nm, HGF 225 ng/mL (human c-Met (human)): 0.45 A450 nm; Tube Formation in ECFC Cells, Total Tube Area (Avg.), HGF 100 ng/mL (human c-Met (human)): 212000; Tubular Morphogenesis Agonist activity (fold stimulation) in HepG2 cells, HGF 50 ng/ml (fold stimulation) (human c-Met (human)): 5.4
humanized IgG2 isotype control antibody | 2.43 | 2.5 | 2.53 | 2.43 | -10.2 | 9.49 | -1.58 | 9.31 | 17.5 | 6.24 | 50400 | 44800 | 46500 | 48500 | 50500 | 47600 | 51700 | 49400 | 45100 | 130 | AVG A450 nm [5]: 2.7 A450 nm; AVG A450 nm [6]: 2.52 A450 nm; AVG A450 nm [7]: 2.87 A450 nm; AVG A450 nm [8]: 2.41 A450 nm; AVG A450 nm [9]: 2.5 A450 nm; AVG A450 nm [10]: 2.43 A450 nm; AVG A450 nm [11]: 2.46 A450 nm
murine IgG isotype control antibody |  |  |  |  | -9.76 | -5.42 | -10.6 | 13.4 | 9.76 | 5.46 | 50300 | 47700 | 51500 | 55500 | 51300 | 52200 | 54700 | 53700 | 52400 | 136 | 
Murine IgG1 c-Met antibody 5D5 |  |  |  |  | -6.07 | -3.5 | 11.9 | 42.5 | 63.8 | 64.1 | 50300 | 51900 | 49600 | 55000 | 49800 | 39600 | 39500 | 38200 | 35100 | 92.9 | 3H-Thymidine Incorporation in Caki-1 Cells in the Absence of HGF (AVG CPM), antibody dose 0.1 ng/mL (human c-Met (human)): 14400 CPM; 3H-Thymidine Incorporation in Caki-1 Cells in the Absence of HGF (AVG CPM), antibody dose 0.4 ng/mL (human c-Met (human)): 12900 CPM; 3H-Thymidine Incorporation in Caki-1 Cells in the Absence of HGF (AVG CPM), antibody dose 2.6 ng/mL (human c-Met (human)): 12500 CPM; 3H-Thymidine Incorporation in Caki-1 Cells in the Absence of HGF (AVG CPM), antibody dose 15.4 ng/mL (human c-Met (human)): 11700 CPM; 3H-Thymidine Incorporation in Caki-1 Cells in the Absence of HGF (AVG CPM), antibody dose 92.6 ng/mL (human c-Met (human)): 15600 CPM; 3H-Thymidine Incorporation in Caki-1 Cells in the Absence of HGF (AVG CPM), antibody dose 555.6 ng/mL (human c-Met (human)): 20000 CPM; 3H-Thymidine Incorporation in Caki-1 Cells in the Absence of HGF (AVG CPM), antibody dose 3333.3 ng/mL (human c-Met (human)): 19000 CPM; 3H-Thymidine Incorporation in Caki-1 Cells in the Absence of HGF (AVG CPM), antibody dose 20000.0 ng/mL (human c-Met (human)): 19900 CPM; 3H-Thymidine Incorporation in Primary Human Hepatocytes in the Absence of HGF (average), dose 0.0032 ug/mL (human c-Met (human)): 822; 3H-Thymidine Incorporation in Primary Human Hepatocytes in the Absence of HGF (average), dose 0.016 ug/mL (human c-Met (human)): 1720; 3H-Thymidine Incorporation in Primary Human Hepatocytes in the Absence of HGF (average), dose 0.08 ug/mL (human c-Met (human)): 3320; 3H-Thymidine Incorporation in Primary Human Hepatocytes in the Absence of HGF (average), dose 0.4 ug/mL (human c-Met (human)): 3760; 3H-Thymidine Incorporation in Primary Human Hepatocytes in the Absence of HGF (average), dose 2 ug/mL (human c-Met (human)): 4910; 3H-Thymidine Incorporation in Primary Human Hepatocytes in the Absence of HGF (average), dose 10 ug/mL (human c-Met (human)): 4980; H441 Scratch Assay, Avg. %, antibody 10 ug/mL (human c-Met (human)): 244%; HepG2 Cell Invasiveness, Average Cell Number Per 2.5x Field, antibody 10.00 ug/mL (cells per 2.5x field) (human c-Met (human)): 85; Percent of DU145 Cells in Colonies (scatter assay), antibody 20 ug/mL (human c-Met (human)): 14.4%; Tube Formation in ECFC Cells, Total Tube Area (Avg.), antibody 10 ug/mL (human c-Met (human)): 147000; Tubular Morphogenesis Agonist activity (fold stimulation) in HepG2 cells, antibody 50 ug/ml (fold stimulation) (human c-Met (human)): 4.9; p-Met signal (pY1349 ELISA, A549 cells), Ab Conc. 5 (ng/mL as printed) (human c-Met (human)): 3.29
humanized IgG4 isotype control antibody | 2.27 | 2.67 | 2.44 | 3 | -14.4 | -7.96 | -21.7 | -16.1 | -6.62 | -1.47 | 48700 | 53900 | 55300 | 54800 | 53800 | 54300 | 54200 | 54000 | 50600 | 135 | AVG A450 nm [5]: 2.88 A450 nm; p-Met signal (pY1349 ELISA, A549 cells), Ab 0.002 µg/mL (human c-Met (human)): 0.117; p-Met signal (pY1349 ELISA, A549 cells), Ab 0.005 µg/mL (human c-Met (human)): 0.074; p-Met signal (pY1349 ELISA, A549 cells), Ab 0.014 µg/mL (human c-Met (human)): 0.074; p-Met signal (pY1349 ELISA, A549 cells), Ab 0.041 µg/mL (human c-Met (human)): 0.268; p-Met signal (pY1349 ELISA, A549 cells), Ab 0.123 µg/mL (human c-Met (human)): 0.067; p-Met signal (pY1349 ELISA, A549 cells), Ab 0.370 µg/mL (human c-Met (human)): 0.082; p-Met signal (pY1349 ELISA, A549 cells), Ab 1.113 µg/mL (human c-Met (human)): 0.087; p-Met signal (pY1349 ELISA, A549 cells), Ab 3.333 µg/mL (human c-Met (human)): 0.068; p-Met signal (pY1349 ELISA, A549 cells), Ab 10 µg/mL (human c-Met (human)): 0.077; p-Met signal (pY1349 ELISA, A549 cells), Ab 30 µg/mL (human c-Met (human)): 0.061; AVG A450 nm [6]: 2.44 A450 nm; AVG A450 nm [7]: 2.49 A450 nm; AVG A450 nm [8]: 2.63 A450 nm; AVG A450 nm [9]: 2.49 A450 nm; AVG A450 nm [10]: 2.61 A450 nm; AVG A450 nm [11]: 2.41 A450 nm
